For experiment [1], the target named is Filamentous actin (F-actin) (rabbit) (UniProt P68135). Briefly: co-sedimentation; 1–30 μM polymerized actin incubated with 10 μM MYPN Ig3, Ig4 or Ig3–4 domain for 1 h in 100 μL, 150 000×g for 30 min; SDS-PAGE of supernatants and pellets, densitometry; F-buffer (Tris, KCl, MgCl2, DTT, pH 8.0).
Experiment [2] deals with F-actin (Oryctolagus cuniculus) (UniProt P68135). The settings on record: cited from earlier work.
For experiment [3] the target is unchanged. The settings on record: cited from earlier work. This is another data set of the same source.

Read-outs that look alike come from different tables or passages of the source.

By Kd is commonly meant the equilibrium constant for the complex coming apart. In experiment [1], “Myopalladin (MYPN) Ig3 domain (domain or fragment)” registered a Kd of 7.6 µM.

Consider PALLD Ig3 (from UniProt Q9ET54), for which the Kd in experiment [2] was 70 µM.

As to PALLD Ig3-4 (from UniProt Q9ET54), the Kd in experiment [3] is 9 µM.

The values above are taken from article PMC7015241.
